Assay: protease stability score; higher = more stable; yeast display proteolysis, trypsin and chymotrypsin;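 further: relative to predicted unfolded state with 0 unfolded-like and 1 meaning tenfold more protease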

| Sequence | protease stability score |
| --- | --- |
| DEEEETMERALRETLHFINTGDEDSMEELMDPNWRIHIDGKDLHGWKFFQHLLRRADHIHIHIELKDVRRVGDKLELDGRLHVIYFIDGQEIHKVVDTHIYMIKINGRWHHKFIEIK | 2.15 |
| DEEEETMRNIIMDWFRAMFTGDEERVNELLDPNARIEVGDKEWHGRDEFRKVLEHIRIHTRQIRIRRIDFFENRVHMDVQLDRELRFDGKTERIDVKLELFLVKIDGRWRFKETSVH | 2.57 |
| DEEEEVLKTYLKLLIDALRTGDEHTMTRLIDPHARTHQGDKEIHGRKSMEELNKRYPNVRVDIRHISEVGDKITIDAVLHVGDKRYEIVIIAWKVNGRWEHTEFEFR | 0.808 |
| DEEEEWARYILKKTMEAWLTGDEEIIRELLDPSTRLVIDGKEFHGMDEAQFLVREIRIDRIRTDMHDVKFQGDWIHVDGHIRVDETVNGRRRHKENRINIIVLKIDGRWYLHRYIIG | 2.35 |
| DEEEEWATEAWKLHLHHHRTGDERMIHELLDPNMRLDFDGVELHGRKLVKEFIERTLRRFDVIDEYDHSDVRIQGDKVDLIQVVRGEIDGRRTHVNQRLIMIKIDGRWVVKHVRLQ | 1.23 |
| DEEEEWLREVLRLIIEFLKTGDEDRLNEMADPTTRLRVGEFHHVGREEVHKFRKKKKDELGVDKIEFRLEDVRIQGDKATADGRVQYNGQEYKMRVIVVVVNGKVKSLTEEWE | 1.07 |
| DEEEEWVRHLAHLFFEWYLTGDWQRFSELMDPTTLSVYGDKHFHGMELVVEFLSRSLDEMRIEHVEFKDIRVYNGVAHVHLRFEGKIGDKRTETDSRLLLYVVDGRIKHVKFIIK | 1.39 |
| DEEEEYAHRFVEDFIDAWLTGDEDRLEELMDPNVKIVVGDKVLVGRHLVIRLMHEWIRKYKGIKFVFHVKHLEAINGRLEIESEVDLRINGRKIKHTSKMVVRKIDGKWEIREFHLN | 2.38 |
| DEEEEYAIEFVILHIEALKTGDERKLEHLMDPHYKLDYNGRKVHGREQWLRFLNEWRVHIHDIKVDDHDVVNGRVILHVTIHGTVIFDGRNIRTHHEQEYVLHKVNGRWHFHSMIVR | 1.5 |
| DEEEEYHRRVLETITRARLTGDEDLFRKNVDPDVKIEVHVGNFRFHDVGWEHLRRWIEELGFEIHHIEIKHEHVINGVMHQESERDGTFNGVRDRVKVRFIYFIVNGRIKHIRFEVE | 0.781 |
| DEEEEYLHKRAREFFRSFLTGDWHFLMHLLDPNVRWEVIIGNKRIERHGREELFKDLLRWLEEIRIKRMHVEEIHVFDGQLFMRVSAHGEFNGKERDTHEELVVVVVNGRFKSARIHVH | 1.65 |
| DEEEEYYRRAVEIHERVLRTGDWRQLRELMDPRTKIDVGDKSFHGRDTITHWTKEMLEKFGVTKVEFHFDHLEMQGDKANIRGTLQINGQPIDISIHSVKIDGRWLIKFVKID | 0.822 |
| DEEEEYYRVAIEIWLRVMMTGDPKYFDRLADPHVRVEQGDKRLHGMEDWSKRLEHMRIDHINIHQFKVVNGKIHVDTEVRGDVDGVEFRTRMELIFEKVDGRWILRRIHIN | 2.71 |
| DEEEHALWHWFQEHVHALETGDEDTLRELADPNVRLDINGKRIHGRHQLEHLIHRIDHMRIDDYKIDHVDRQGEKVIIDGTFHGKIIQGDKTIHMHTRVIIILLKVDGQWRLKSEQID | 1.12 |
| DEEEHDARELARIVIEQFLTGNEDMLREFMDPNTRLHVNGVHRHGRESMVIMLRQLRTKRVHIKSIRIIGEKVDVDGILNGEVNGVEDNHQVHFHLIKVDGQWYIHHVIIR | 1.39 |
| DEEEHDLRLAVELWHRLLETGDERVEKHLIDPHVRVHFNGRDLHGREAATWTLRTMGVKVFELKRIETFNGQVNIHQHVNVDGQHYDLIIHARKIDGRWVNESMRIH | 0.667 |
| DEEEHDVEVAFREYVKSTKTGDEDTLRHLADPHVKIWVDGRDFHGREVYYRLEKKIMEEWRFHDMHVEHVLVQGNKMTLHTRIDGEFDGKKVNLEVIIISVKVDGQWMIHSLEHR | 2.22 |
| DEEEHEAKRADEVYQHVMETGDERLLNEYFDPHYRLEQGDYELVGREEASRFLIEWMKHWRTEYRLDNYHVIGNKIRLEGELHIRYGNFTRSHRIVTYVLKVDGQWRIKKTEIR | 1.64 |
| DEEEHEEKRLLEMHLHYLATGDEENLKKLLDPNVKLVVNGREIHGRERIIEFIRRLIEMWGVDRIDSRIRHVTSQGDKIRLEGEWIVGEKVIDTRLLAVKVDGRWVEETLILK | 2.13 |
| DEEEHEIRQAIELEIRLIETGDFKAMRKMADPHVRTHINIGDKRLDLHGRDFFEWWLRFVKGVTHRFEDFVSVGNKVHIIVQDQVGDKRYEVKIVFKKVDGRWRMTESEVHFE | 1.83 |
| DEEEHELLHFVHLWIDILRTGDWEKISEYADPNVKLIVGDKIFIGMEAFIEFMERFLRRVDHVQYEIRSIRAYDGVIEMHTEVREHQGDKEIHTEVHITFFVYNGVKKHIEIRIK | 2.48 |
| DEEEHELQEAIEILKHDIETGNWERFVKRADPHARIRFNGRDLHGWERMKEVFEHVSKEFQNQKVEFETEHYFDGRVEVIVNIRIGDKNIHMRIISDKINGQWITREVRFH | 1.41 |
| DEEEHEWRKVIHELLHAFMTGDWKRFLKLVDPHAKFLVDGQEMHGREVLKHYIDRIKNMRIEIRDETYDMVDGRMHSIFQLELTQGEYRHESYIEVIIKKFDGRWRVHEVDFEIR | 2.18 |
| DEEEHHIKTLLELHWEIWKTGDEDRFRELADPNTKLIVNGREVIGRERVAKVIHDILRHMRFHDFTLERDKIYNGQVDLHGTEYGHINGKNIERTHVFHIVIVNGVLKSIELRIH | 1.01 |
| DEEEHHMKLAYDILLQTLRTGDEDLMERLIDPNVRFELLIGDFILHIHGWELVVEWDIRIARQWRIEHVHIKRYEVFNGRSRVNVKIDGVVNGRRYRFDIIELSLVIDGRVHHRSQEII | 0.835 |

Source: the NTF2 design screens of Basanta et al. (2020)
